# T1: mouse CD20 (mouse, UniProt P19437 1-291, limits assumed)
# T1 construct: Named only as mouse CD20
# T1 sequence (looked up): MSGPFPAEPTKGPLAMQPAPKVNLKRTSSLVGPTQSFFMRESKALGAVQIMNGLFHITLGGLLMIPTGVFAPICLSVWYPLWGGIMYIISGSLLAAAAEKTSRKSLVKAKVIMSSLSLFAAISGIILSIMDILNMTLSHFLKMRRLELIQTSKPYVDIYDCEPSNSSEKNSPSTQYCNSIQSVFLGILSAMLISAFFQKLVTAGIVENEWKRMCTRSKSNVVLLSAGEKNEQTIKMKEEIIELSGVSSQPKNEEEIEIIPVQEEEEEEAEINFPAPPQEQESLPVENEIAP
# T2: human CD20 (human, UniProt P11836 1-297)
# T2 sequence (looked up): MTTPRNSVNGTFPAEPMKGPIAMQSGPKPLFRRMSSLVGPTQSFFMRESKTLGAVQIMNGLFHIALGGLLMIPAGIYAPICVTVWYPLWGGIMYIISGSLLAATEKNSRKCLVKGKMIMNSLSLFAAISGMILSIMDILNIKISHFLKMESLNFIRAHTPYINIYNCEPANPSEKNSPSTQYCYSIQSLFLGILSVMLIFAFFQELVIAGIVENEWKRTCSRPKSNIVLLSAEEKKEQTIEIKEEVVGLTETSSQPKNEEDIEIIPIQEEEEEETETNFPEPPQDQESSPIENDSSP
# Key:
# mouse CD20 = target: T1, mouse CD20; test: not described
# human CD20 = target: T2, human CD20; test: cell-based or functional assay
binder,measurement,setting,value
"XmAb®13676 (XENP13676 Anti-CD20 × Anti-CD3 Fab-scFv-Fc) (bispecific antibody, The anti-CD20 Fv is derived from murine antibody C2B8; also called plamotamab) heavy: QVQLVQSGAEVKKPGASVKVSCKASGYTFTSYNMHWVRQAPGQGLEWMGAIYPGNGDTSYNQKFQGRVTITADKSISTAYMELSSLRSEDTAVYYCARSTYYGGDWYFNVWGAGTLVTVSSASTKGPSVFPLAPSSKSTSGGTAALGCLVKDYFPEPVTVSWNSGALTSGVHTFPAVLQSSGLYSLSSVVTVPSSSLGTQTYICNVNHKPSDTKVDKKVEPKSCDKTHTCPPCPAPPVAGPSVFLFPPKPKDTLMISRTPEVTCVVVDVKHEDPEVKFNWYVDGVEVHNAKTKPREEEYNSTYRVVSVLTVLHQDWLNGKEYKCKVSNKALPAPIEKTISKAKGQPREPQVYTLPPSREEMTKNQVSLTCDVSGFYPSDIAVEWESDGQPENNYKTTPPVLDSDGSFFLYSKLTVDKSRWEQGDVFSCSVMHEALHNHYTQKSLSLSPGK not shown light: QIVLTQSPSSLSASVGDRVTITCRASSSVSYIHWFQQKPGKSPKPLIYATSNLASGVPVRFSGSGSGTDYTLTISSLQPEDFATYYCQQWTSNPPTFGGGTKVEIKRTVAAPSVFIFPPSDEQLKSGTASVVCLLNNFYPREAKVQWKVDNALQSGNSQESVTEQDSKDSTYSLSSTLTLSKADYEKHKVYACEVTHQGLSSPVTKSFNRGEC",binding result,mouse CD20,no binding
same,EC50 of Jeko-1 target cell killing (RTCC) in the presence of 3 µg/ml rituximab,human CD20,0.051 µg/mL
same,EC50 of Jeko-1 target cell killing (RTCC) in the presence of 10 µg/ml rituximab,human CD20,0.093 µg/mL
same,EC50 of Jeko-1 target cell killing (RTCC) in the presence of 30 µg/ml rituximab,human CD20,0.162 µg/mL
same,EC50 of Jeko-1 target cell killing (RTCC) in the presence of 100 µg/ml rituximab,human CD20,0.387 µg/mL
same,"EC50 of Jeko-1 target cell killing (RTCC), no rituximab",human CD20,0.024 µg/mL
same,EC50 of RTCC against Ramos cells with purified T cells from six healthy donors,human CD20,0.0053 to 0.0143 µg/mL

# Reference: US20230048390A1 (Xencor, published 2023)
